The target of data set [1] is T1, Cre recombinase monomer with Q311R mutation.
T1 chain: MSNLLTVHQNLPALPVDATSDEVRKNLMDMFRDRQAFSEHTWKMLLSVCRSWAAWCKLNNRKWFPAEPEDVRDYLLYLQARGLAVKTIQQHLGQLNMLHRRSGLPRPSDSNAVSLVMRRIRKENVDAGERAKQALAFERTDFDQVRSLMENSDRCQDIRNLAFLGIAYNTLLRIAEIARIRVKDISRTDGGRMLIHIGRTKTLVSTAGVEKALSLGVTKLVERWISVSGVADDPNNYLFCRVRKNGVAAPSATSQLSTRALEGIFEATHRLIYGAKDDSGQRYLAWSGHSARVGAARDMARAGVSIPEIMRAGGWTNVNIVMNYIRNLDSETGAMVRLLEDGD

For data set [2], the target named is T2, Cre recombinase monomer with Y324A mutation.
T2 chain: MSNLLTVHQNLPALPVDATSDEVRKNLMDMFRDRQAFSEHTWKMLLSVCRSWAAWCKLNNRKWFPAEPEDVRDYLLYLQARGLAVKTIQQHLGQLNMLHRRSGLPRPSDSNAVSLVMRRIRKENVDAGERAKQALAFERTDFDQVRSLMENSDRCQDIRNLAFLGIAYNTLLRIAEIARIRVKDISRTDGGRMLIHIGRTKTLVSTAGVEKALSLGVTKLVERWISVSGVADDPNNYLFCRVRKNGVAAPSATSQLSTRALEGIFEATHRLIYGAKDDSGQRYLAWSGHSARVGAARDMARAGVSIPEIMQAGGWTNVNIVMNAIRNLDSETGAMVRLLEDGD

Data set [3] concerns the target T3, Cre recombinase monomer with Y324I mutation.
T3 chain: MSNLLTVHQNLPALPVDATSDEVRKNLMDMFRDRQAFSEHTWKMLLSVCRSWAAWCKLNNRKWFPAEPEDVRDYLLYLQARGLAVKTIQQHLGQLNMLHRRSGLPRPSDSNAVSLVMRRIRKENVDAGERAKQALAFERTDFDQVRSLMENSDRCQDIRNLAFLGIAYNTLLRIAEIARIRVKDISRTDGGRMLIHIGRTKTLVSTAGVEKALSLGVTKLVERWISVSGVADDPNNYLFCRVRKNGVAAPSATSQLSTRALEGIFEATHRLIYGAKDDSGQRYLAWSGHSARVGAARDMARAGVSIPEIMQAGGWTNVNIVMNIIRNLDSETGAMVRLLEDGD

The target of data set [4] is T4, Cre recombinase monomer with W315L mutation.
T4 chain: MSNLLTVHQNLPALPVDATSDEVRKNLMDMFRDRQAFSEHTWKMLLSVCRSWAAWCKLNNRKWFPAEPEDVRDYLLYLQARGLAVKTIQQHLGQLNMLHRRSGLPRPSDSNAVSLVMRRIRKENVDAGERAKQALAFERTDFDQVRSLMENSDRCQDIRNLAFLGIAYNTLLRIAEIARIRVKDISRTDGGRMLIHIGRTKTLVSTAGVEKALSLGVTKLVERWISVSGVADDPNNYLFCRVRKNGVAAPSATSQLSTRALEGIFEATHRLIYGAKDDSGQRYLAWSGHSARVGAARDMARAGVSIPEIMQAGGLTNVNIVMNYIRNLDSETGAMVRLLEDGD

Data set [5] deals with T5, Cre recombinase monomer with Y324N mutation.
T5 chain: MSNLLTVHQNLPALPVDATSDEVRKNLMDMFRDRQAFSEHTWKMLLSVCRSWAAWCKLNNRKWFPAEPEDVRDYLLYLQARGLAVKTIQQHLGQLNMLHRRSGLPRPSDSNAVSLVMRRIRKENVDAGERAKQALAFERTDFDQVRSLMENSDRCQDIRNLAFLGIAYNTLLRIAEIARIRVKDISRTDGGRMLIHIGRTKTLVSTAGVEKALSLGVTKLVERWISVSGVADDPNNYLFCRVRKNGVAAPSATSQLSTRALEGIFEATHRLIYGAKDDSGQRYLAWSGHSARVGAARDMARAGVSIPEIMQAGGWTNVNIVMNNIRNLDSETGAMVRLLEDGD

The target in data set [6] is T6, Cre recombinase monomer with Y324T mutation.
T6 chain: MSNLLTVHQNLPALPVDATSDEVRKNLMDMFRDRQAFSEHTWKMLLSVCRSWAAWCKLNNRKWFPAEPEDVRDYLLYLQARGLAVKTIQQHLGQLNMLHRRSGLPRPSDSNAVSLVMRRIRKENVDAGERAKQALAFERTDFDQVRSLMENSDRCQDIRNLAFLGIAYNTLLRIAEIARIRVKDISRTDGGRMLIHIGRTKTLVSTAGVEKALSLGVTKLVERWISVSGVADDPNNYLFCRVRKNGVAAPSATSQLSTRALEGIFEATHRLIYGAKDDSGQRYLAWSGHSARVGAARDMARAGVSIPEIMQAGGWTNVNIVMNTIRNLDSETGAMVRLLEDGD

Data set [7] has as its target T7, Cre recombinase monomer with Y324R mutation.
T7 chain: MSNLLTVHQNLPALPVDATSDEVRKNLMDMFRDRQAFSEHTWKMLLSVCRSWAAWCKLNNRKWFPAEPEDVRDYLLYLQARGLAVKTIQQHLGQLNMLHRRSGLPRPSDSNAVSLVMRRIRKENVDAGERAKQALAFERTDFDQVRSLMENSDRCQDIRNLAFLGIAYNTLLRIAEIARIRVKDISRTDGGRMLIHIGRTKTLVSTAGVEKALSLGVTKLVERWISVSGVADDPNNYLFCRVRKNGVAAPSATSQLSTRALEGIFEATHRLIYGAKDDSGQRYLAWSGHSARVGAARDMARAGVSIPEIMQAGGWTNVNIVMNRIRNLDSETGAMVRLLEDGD

In data set [8] the target is T8, Cre recombinase monomer with W315C mutation.
T8 chain: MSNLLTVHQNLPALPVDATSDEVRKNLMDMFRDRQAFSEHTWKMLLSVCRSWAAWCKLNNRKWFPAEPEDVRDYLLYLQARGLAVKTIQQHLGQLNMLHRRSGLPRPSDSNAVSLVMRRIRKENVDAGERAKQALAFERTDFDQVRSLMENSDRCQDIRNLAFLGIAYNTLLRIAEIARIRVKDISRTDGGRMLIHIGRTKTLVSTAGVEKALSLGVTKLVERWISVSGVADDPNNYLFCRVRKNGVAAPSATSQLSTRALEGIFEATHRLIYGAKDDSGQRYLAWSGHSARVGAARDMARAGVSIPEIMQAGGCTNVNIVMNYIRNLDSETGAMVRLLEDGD

In data set [9] the target is T9, Cre recombinase monomer with Y324S mutation.
T9 chain: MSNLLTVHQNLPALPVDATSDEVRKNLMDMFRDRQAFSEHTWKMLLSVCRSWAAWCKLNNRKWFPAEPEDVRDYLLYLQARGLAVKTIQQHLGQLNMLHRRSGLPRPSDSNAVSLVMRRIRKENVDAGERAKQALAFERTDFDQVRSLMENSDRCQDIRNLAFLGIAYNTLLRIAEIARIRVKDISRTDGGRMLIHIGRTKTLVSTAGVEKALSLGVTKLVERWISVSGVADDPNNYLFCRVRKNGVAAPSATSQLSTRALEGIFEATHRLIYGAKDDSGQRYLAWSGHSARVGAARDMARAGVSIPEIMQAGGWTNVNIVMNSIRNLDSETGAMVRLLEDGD

B1: Cre recombinase monomer with K201N mutation (protein)
chain: MSNLLTVHQNLPALPVDATSDEVRKNLMDMFRDRQAFSEHTWKMLLSVCRSWAAWCKLNNRKWFPAEPEDVRDYLLYLQARGLAVKTIQQHLGQLNMLHRRSGLPRPSDSNAVSLVMRRIRKENVDAGERAKQALAFERTDFDQVRSLMENSDRCQDIRNLAFLGIAYNTLLRIAEIARIRVKDISRTDGGRMLIHIGRTNTLVSTAGVEKALSLGVTKLVERWISVSGVADDPNNYLFCRVRKNGVAAPSATSQLSTRALEGIFEATHRLIYGAKDDSGQRYLAWSGHSARVGAARDMARAGVSIPEIMQAGGWTNVNIVMNYIRNLDSETGAMVRLLEDGD
In the case of B1, the “Median dimer activity (recombination on loxP)” value (from here on “Median dimer activity”) in data set [1] amounted to 95%; in [2], 26%.

B2: Cre recombinase monomer with R292E mutation (protein)
chain: MSNLLTVHQNLPALPVDATSDEVRKNLMDMFRDRQAFSEHTWKMLLSVCRSWAAWCKLNNRKWFPAEPEDVRDYLLYLQARGLAVKTIQQHLGQLNMLHRRSGLPRPSDSNAVSLVMRRIRKENVDAGERAKQALAFERTDFDQVRSLMENSDRCQDIRNLAFLGIAYNTLLRIAEIARIRVKDISRTDGGRMLIHIGRTKTLVSTAGVEKALSLGVTKLVERWISVSGVADDPNNYLFCRVRKNGVAAPSATSQLSTRALEGIFEATHRLIYGAKDDSGQRYLAWSGHSAEVGAARDMARAGVSIPEIMQAGGWTNVNIVMNYIRNLDSETGAMVRLLEDGD
On to B2, for which the “Median dimer activity” value turned out to be 70% in data set [3] and 50% in data set [1].

B3: Cre recombinase monomer with H289E mutation (protein)
chain: MSNLLTVHQNLPALPVDATSDEVRKNLMDMFRDRQAFSEHTWKMLLSVCRSWAAWCKLNNRKWFPAEPEDVRDYLLYLQARGLAVKTIQQHLGQLNMLHRRSGLPRPSDSNAVSLVMRRIRKENVDAGERAKQALAFERTDFDQVRSLMENSDRCQDIRNLAFLGIAYNTLLRIAEIARIRVKDISRTDGGRMLIHIGRTKTLVSTAGVEKALSLGVTKLVERWISVSGVADDPNNYLFCRVRKNGVAAPSATSQLSTRALEGIFEATHRLIYGAKDDSGQRYLAWSGESARVGAARDMARAGVSIPEIMQAGGWTNVNIVMNYIRNLDSETGAMVRLLEDGD
As for B3, the “Median dimer activity” value came out at 33% in data set [4] and 94% in [1].

B4: Cre recombinase monomer with W315C mutation (protein)
chain: MSNLLTVHQNLPALPVDATSDEVRKNLMDMFRDRQAFSEHTWKMLLSVCRSWAAWCKLNNRKWFPAEPEDVRDYLLYLQARGLAVKTIQQHLGQLNMLHRRSGLPRPSDSNAVSLVMRRIRKENVDAGERAKQALAFERTDFDQVRSLMENSDRCQDIRNLAFLGIAYNTLLRIAEIARIRVKDISRTDGGRMLIHIGRTKTLVSTAGVEKALSLGVTKLVERWISVSGVADDPNNYLFCRVRKNGVAAPSATSQLSTRALEGIFEATHRLIYGAKDDSGQRYLAWSGHSARVGAARDMARAGVSIPEIMQAGGCTNVNIVMNYIRNLDSETGAMVRLLEDGD
Consider B4, for which the “Median dimer activity” value was 38% in [5], 36% in data set [6] and 31% in [7].

B5: Cre recombinase monomer with H289W mutation (protein)
chain: MSNLLTVHQNLPALPVDATSDEVRKNLMDMFRDRQAFSEHTWKMLLSVCRSWAAWCKLNNRKWFPAEPEDVRDYLLYLQARGLAVKTIQQHLGQLNMLHRRSGLPRPSDSNAVSLVMRRIRKENVDAGERAKQALAFERTDFDQVRSLMENSDRCQDIRNLAFLGIAYNTLLRIAEIARIRVKDISRTDGGRMLIHIGRTKTLVSTAGVEKALSLGVTKLVERWISVSGVADDPNNYLFCRVRKNGVAAPSATSQLSTRALEGIFEATHRLIYGAKDDSGQRYLAWSGWSARVGAARDMARAGVSIPEIMQAGGWTNVNIVMNYIRNLDSETGAMVRLLEDGD
In the case of B5, the “Median dimer activity” value was 95% in data set [1] and 87% in [8].

B6: Cre recombinase monomer with W315E mutation (protein)
chain: MSNLLTVHQNLPALPVDATSDEVRKNLMDMFRDRQAFSEHTWKMLLSVCRSWAAWCKLNNRKWFPAEPEDVRDYLLYLQARGLAVKTIQQHLGQLNMLHRRSGLPRPSDSNAVSLVMRRIRKENVDAGERAKQALAFERTDFDQVRSLMENSDRCQDIRNLAFLGIAYNTLLRIAEIARIRVKDISRTDGGRMLIHIGRTKTLVSTAGVEKALSLGVTKLVERWISVSGVADDPNNYLFCRVRKNGVAAPSATSQLSTRALEGIFEATHRLIYGAKDDSGQRYLAWSGHSARVGAARDMARAGVSIPEIMQAGGETNVNIVMNYIRNLDSETGAMVRLLEDGD
Turning to B6, the “Median dimer activity” value in [9] is reported as 35%.

Values taken from US20230183713A1, “SITE-SPECIFIC RECOMBINASES FOR EFFICIENT AND SPECIFIC GENOME EDITING” (TECHNISCHE UNIVERSITÄt DRESDEN, published 2023).
